Test results as given in patent US20040260068A1 (published 2004).
Several values for one entry are separate records, joined by “and”; a condition that tells them apart may be missing. Equal entries are not always repeated.

Legend:
[1] = target: T1, mouse IL-12 (mouse, UniProt P43431 23-215; P43432 23-335); experiment: competition ELISA on coated mouse IL-12; competitor of biotinylated humanized B1
T1 sequence (looked up) 1: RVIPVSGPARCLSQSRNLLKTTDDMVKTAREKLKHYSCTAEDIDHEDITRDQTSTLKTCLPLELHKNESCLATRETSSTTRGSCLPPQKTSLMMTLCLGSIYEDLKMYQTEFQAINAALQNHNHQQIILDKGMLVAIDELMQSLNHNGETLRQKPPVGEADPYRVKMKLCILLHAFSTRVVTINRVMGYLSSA
T1 sequence (looked up) 2: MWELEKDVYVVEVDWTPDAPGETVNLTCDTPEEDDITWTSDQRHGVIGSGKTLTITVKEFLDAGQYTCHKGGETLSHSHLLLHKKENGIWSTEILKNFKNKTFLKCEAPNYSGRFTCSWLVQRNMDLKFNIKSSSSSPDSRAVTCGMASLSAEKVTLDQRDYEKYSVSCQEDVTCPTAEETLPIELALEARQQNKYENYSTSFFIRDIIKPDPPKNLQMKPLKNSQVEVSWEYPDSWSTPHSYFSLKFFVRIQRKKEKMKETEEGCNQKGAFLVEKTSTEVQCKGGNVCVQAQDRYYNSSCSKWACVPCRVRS
Experimental: (§1) MaxiSorp plates were coated with 100 μl of 0.1 μg/ml human or mouse IL-12 (R&D) and blocked with Superblock blocking buffer. […] As a background control, 100 μl of ELISA Buffer was used. ELISA plates were incubated at room temperature for 2 hr. After washing the wells with Washing Buffer (PBS containing 0.1 % Tween 20), 100 μl of 1 μg/ml HRP-conjugated streptavidin (Pierce) in ELISA buffer was added to each well. ELISA plates were incubated at room temperature for 30 min and washed with Washing Buffer. For color development, 100 μI/well of ABTS substrate was added. Color development was stopped by adding 100 μl/well of 2% oxalic acid. Absorbance was read at 415 nm.

[2] = target: T2, human IL-12 (human, UniProt P29459 23-219; P29460 23-328); experiment: competition ELISA on coated human IL-12
T2 construct: also called human IL-12 p70 heterodimer; IL-12 p75
T2 sequence (looked up) 1: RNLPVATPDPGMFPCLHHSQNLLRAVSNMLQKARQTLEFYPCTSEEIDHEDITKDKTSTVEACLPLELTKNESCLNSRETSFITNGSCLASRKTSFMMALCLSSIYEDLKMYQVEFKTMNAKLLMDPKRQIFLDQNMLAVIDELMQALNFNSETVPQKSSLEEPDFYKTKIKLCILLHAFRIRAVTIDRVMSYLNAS
T2 sequence (looked up) 2: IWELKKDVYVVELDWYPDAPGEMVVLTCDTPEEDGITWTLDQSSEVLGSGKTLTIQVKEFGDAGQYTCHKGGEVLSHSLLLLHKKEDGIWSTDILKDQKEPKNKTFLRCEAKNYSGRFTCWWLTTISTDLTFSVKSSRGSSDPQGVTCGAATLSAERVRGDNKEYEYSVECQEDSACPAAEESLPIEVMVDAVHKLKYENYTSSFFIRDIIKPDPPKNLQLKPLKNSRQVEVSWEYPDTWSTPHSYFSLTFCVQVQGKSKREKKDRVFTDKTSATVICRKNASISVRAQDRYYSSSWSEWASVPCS
Experimental: (§2) ELISA plates were incubated at room temperature for 2 hr. After washing the wells with Washing Buffer, 0.5 μg/ml HRP-conjugated streptavidin (Pierce) was added to each well. Color development was performed with TMB substrate (Kirkegaard & Perry Laboratories).

[3] = target: T1, mouse IL-12; experiment: competition ELISA on coated mouse IL-12
Experimental: as §1

[4] = target: T3, chicken lysozyme (chicken, UniProt P00698 19-147); experiment: ELISA on coated protein
T3 construct: Control antigen; also called hen egg lysozyme
T3 sequence (P00698 19-147): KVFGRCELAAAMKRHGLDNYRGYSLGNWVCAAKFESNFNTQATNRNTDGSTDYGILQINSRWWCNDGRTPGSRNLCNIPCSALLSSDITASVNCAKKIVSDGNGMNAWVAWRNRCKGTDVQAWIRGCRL
Experimental: (§3) For binding to various proteins, ELISA plates were coated with chicken lysozyme (Sigma), human globin (Sigma), bovine albumin (Sigma), and concanavalin A (Pharmacia) as well as human and mouse IL-12 (R&D) at 0.1 μg/ml in 0.2 M sodium carbonate buffer (pH 9.4) and blocked with SuperBlock buffer (Pierce).

[5] = target: T4, concanavalin A (UniProt P02866 30-281); experiment: ELISA on coated protein
T4 construct: Control antigen
Experimental: as §3

[6] = target: T5, bovine albumin (bovine, UniProt P02769 25-607); experiment: ELISA on coated protein
T5 construct: Control antigen
T5 sequence (P02769 25-607 limits assumed): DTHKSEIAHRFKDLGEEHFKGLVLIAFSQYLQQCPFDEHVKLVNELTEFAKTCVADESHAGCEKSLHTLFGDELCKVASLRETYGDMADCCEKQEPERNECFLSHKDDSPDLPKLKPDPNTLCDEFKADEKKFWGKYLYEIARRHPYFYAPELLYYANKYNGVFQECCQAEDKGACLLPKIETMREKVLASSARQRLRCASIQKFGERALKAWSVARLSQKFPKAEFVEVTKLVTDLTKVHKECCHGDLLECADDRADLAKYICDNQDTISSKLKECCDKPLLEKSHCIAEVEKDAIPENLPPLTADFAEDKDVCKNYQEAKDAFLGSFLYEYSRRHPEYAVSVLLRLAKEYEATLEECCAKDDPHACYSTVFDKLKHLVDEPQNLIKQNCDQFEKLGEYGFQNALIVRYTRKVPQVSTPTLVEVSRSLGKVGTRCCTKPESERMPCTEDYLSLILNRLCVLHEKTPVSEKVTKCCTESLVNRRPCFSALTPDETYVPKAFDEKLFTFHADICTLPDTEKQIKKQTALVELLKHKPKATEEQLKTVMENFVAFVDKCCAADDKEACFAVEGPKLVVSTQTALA
Experimental: as §3

[7] = target: T1, mouse IL-12; experiment: competitive binding assay (competition ELISA)
Experimental: as §1

[8] = target: T2, human IL-12; experiment: competition ELISA on coated human IL-12; competitor of biotinylated humanized B1
Experimental: as §1

[9] = target: T1, mouse IL-12; experiment: competition ELISA on coated mouse IL-12; competitor of biotinylated ChDD2
Experimental: as §2, with “MaxiSorp plates (Nalge Nunc, Rochester N.Y.) were coated with 0.1 μg/ml human or mouse IL-12. […] ELISA” for “ELISA”

[10] = target: T2, human IL-12; experiment: competition ELISA on coated human IL-12; competitor of biotinylated ChDD2
Experimental: as §2

B1: humanized B1 IgG1/λ monoclonal antibody (antibody, V domains shown)
VH: EVQLVESGGGLVQPGGSLRLSCAASGFTFSSYSMLWVRQAPGKGLEYVAEITNTGRTRRYGAAVKGRATISRDNAKNTVYLQMNSLRAEDTAVYYCARSSVYSCSYGWCAGNINAWGQGTLVTVSS
VL: SSELTQPPSVSVALGQTVRITCSGGYSGYYGWYQQKPGQAPVTVIYDNTRRPSDIPSRFSGSKSGSTATLTITGVQAEDEADYYCGTWDSSRVGIFGGGTKLTVL
notes: made in Sp2/0; also called HuB1
Q: B1 was tested. Which IC50 [1] did it give?
A: 6.2 µg/mL

Q: What about the “fold better binding than chimeric B1” value [2] of the same binder?
A: ~1.4 fold

Q: And the “fold decrease in relative binding against chimeric B1 (fold)” value [3]?
A: ~2.1 fold

Q: Does B1 bind [4]?
A: no binding (tested: 0.01 µg/ml antibody)

Q: Does B1 bind [5]?
A: no binding (tested: 0.01 µg/ml antibody)

Q: Does B1 bind [6]?
A: no binding (tested: 0.01 µg/ml antibody)

Q: What about the “fold better affinity than chimeric B1” value [7] of the same binder?
A: ~2 fold

Q: What about the IC50 [8] of the same binder?
A: 5.8 µg/mL

B2: chimeric B1 IgG1/λ antibody (chicken-human chimeric anti-IL-12 antibody B1) (antibody, V domains shown)
VH: AVTLDESGGGLQTPGGALSLVCKASGFTFSSYSMLWVRQAPGKGLEYVAEITNTGRTRRYGAAVKGRATISRDNGQSTVRLQLNNLRAEDTGTYYCARSSVYSCSYGWCAGNINAWGHGTEVIVSS
VL: ALTQPASVSANLGGTVKITCSGGYSGYYGWYQQKSPGSAPVTVIYDNTRRPSDIPSRFSGSKSGSTATLTITGVQADDEAVYFCGTWDSSRVGIFGAGTTLTVL
notes: made in Sp2/0; also called ChB1
Q: Which results are given for B2?
A: IC50 [1]: 13 µg/mL; binding result [4]: no binding (tested: 0.01 µg/ml antibody); binding result [5]: no binding (tested: 0.01 µg/ml antibody); binding result [6]: no binding (tested: 0.01 µg/ml antibody); IC50 [8]: 8.3 µg/mL

B3: humanized DD2 IgG1/λ monoclonal antibody (antibody, V domains shown)
VH: EVQLVESGGGLVQPGGSLRLSCAASGFDFSNYQLQWVRQAPGKGLEWVGGIGSSGSSTYYGAAVKGRATISRDNAKNSVYLQMNSLRAEDTAVYYCTRGVSPYSCWYAGRTSYTCHAYTAGSIDAWGQGTLVTVSS
VL: SSELTQDPAVSVALGQTVRITCPGGGIYAGRYYGYGWFQQKPGQAPVTVIYSNDKRPSDIPSRFSGSASGSTASLTITGAQAEDEADYYCGSHDSNVGVFGGGTKLTVL
notes: also called HuDD2; wild-type HuDD2
Q: With B3 as the binder, how does the IC50 [9] read?
A: 2.4 µg/mL

Q: What about the IC50 [10] of the same binder?
A: 4.2 µg/mL and 3.5 µg/mL

B4: HuDD2 Vλ S69N mutant (antibody, IgG1, V domains shown)
VH: EVQLVESGGGLVQPGGSLRLSCAASGFDFSNYQLQWVRQAPGKGLEWVGGIGSSGSSTYYGAAVKGRATISRDNAKNSVYLQMNSLRAEDTAVYYCTRGVSPYSCWYAGRTSYTCHAYTAGSIDAWGQGTLVTVSS
VL: SSELTQDPAVSVALGQTVRITCPGGGIYAGRYYGYGWFQQKPGQAPVTVIYSNDKRPSDIPSRFSGSASGNTASLTITGAQAEDEADYYCGSHDSNVGVFGGGTKLTVL
notes: IgG1/λ as HuDD2; Kabat numbering
Q: Which IC50 [10] does the source give for B4 here?
A: 4.3 µg/mL

B5: HuDD2 VH V78L mutant (antibody, IgG1, name in Kabat numbering, V domains shown)
VH: EVQLVESGGGLVQPGGSLRLSCAASGFDFSNYQLQWVRQAPGKGLEWVGGIGSSGSSTYYGAAVKGRATISRDNAKNSLYLQMNSLRAEDTAVYYCTRGVSPYSCWYAGRTSYTCHAYTAGSIDAWGQGTLVTVSS
VL: SSELTQDPAVSVALGQTVRITCPGGGIYAGRYYGYGWFQQKPGQAPVTVIYSNDKRPSDIPSRFSGSASGSTASLTITGAQAEDEADYYCGSHDSNVGVFGGGTKLTVL
notes: IgG1/λ as HuDD2; H78 (Kabat) is the position named as the one tested; also called V79L
Q: For B5, which “fold reduction of binding affinity against wild-type HuDD2” value [2] is on record?
A: 2 fold

Q: And the IC50 [10]?
A: 7 µg/mL

B6: HuDD2 VH T93A mutant (antibody, IgG1, name in Kabat numbering, V domains shown)
VH: EVQLVESGGGLVQPGGSLRLSCAASGFDFSNYQLQWVRQAPGKGLEWVGGIGSSGSSTYYGAAVKGRATISRDNAKNSVYLQMNSLRAEDTAVYYCARGVSPYSCWYAGRTSYTCHAYTAGSIDAWGQGTLVTVSS
VL: SSELTQDPAVSVALGQTVRITCPGGGIYAGRYYGYGWFQQKPGQAPVTVIYSNDKRPSDIPSRFSGSASGSTASLTITGAQAEDEADYYCGSHDSNVGVFGGGTKLTVL
notes: as for B4
Q: B6 was tested. Which IC50 [10] did it give?
A: 3.3 µg/mL

B7: HuDD2 Vλ A66S mutant (antibody, IgG1, V domains shown)
VH: EVQLVESGGGLVQPGGSLRLSCAASGFDFSNYQLQWVRQAPGKGLEWVGGIGSSGSSTYYGAAVKGRATISRDNAKNSVYLQMNSLRAEDTAVYYCTRGVSPYSCWYAGRTSYTCHAYTAGSIDAWGQGTLVTVSS
VL: SSELTQDPAVSVALGQTVRITCPGGGIYAGRYYGYGWFQQKPGQAPVTVIYSNDKRPSDIPSRFSGSSSGSTASLTITGAQAEDEADYYCGSHDSNVGVFGGGTKLTVL
notes: as for B4
Q: Which IC50 [10] does the source give for B7 here?
A: 3.4 µg/mL

B8: HuDD2 Vλ T46L mutant (antibody, IgG1, V domains shown)
VH: EVQLVESGGGLVQPGGSLRLSCAASGFDFSNYQLQWVRQAPGKGLEWVGGIGSSGSSTYYGAAVKGRATISRDNAKNSVYLQMNSLRAEDTAVYYCTRGVSPYSCWYAGRTSYTCHAYTAGSIDAWGQGTLVTVSS
VL: SSELTQDPAVSVALGQTVRITCPGGGIYAGRYYGYGWFQQKPGQAPVLVIYSNDKRPSDIPSRFSGSASGSTASLTITGAQAEDEADYYCGSHDSNVGVFGGGTKLTVL
notes: as for B4
Q: For B8, which “fold reduction of binding affinity against wild-type HuDD2” value [2] is on record?
A: 4.6 fold

Q: And the IC50 [10]?
A: 16.1 µg/mL

B9: HuDD2 VH A67F mutant (antibody, IgG1, name in Kabat numbering, V domains shown)
VH: EVQLVESGGGLVQPGGSLRLSCAASGFDFSNYQLQWVRQAPGKGLEWVGGIGSSGSSTYYGAAVKGRFTISRDNAKNSVYLQMNSLRAEDTAVYYCTRGVSPYSCWYAGRTSYTCHAYTAGSIDAWGQGTLVTVSS
VL: SSELTQDPAVSVALGQTVRITCPGGGIYAGRYYGYGWFQQKPGQAPVTVIYSNDKRPSDIPSRFSGSASGSTASLTITGAQAEDEADYYCGSHDSNVGVFGGGTKLTVL
notes: IgG1/λ as HuDD2
Q: For B9, which IC50 [10] is on record?
A: 2.1 µg/mL

B10: chicken-human chimeric anti-IL-12 antibody DD2 (antibody, V domains shown)
VH: AVTLDESGGGLQTPGGGLSLVCKASGFDFSNYQLQWVRQAPGKGLEWVGGIGSSGSSTYYGAAVKGRATISRDNGQSTVRLQLNNLRAEDTGTYYCTRGVSPYSCWYAGRTSYTCHAYTAGSIDAWGHGTEVIVSS
VL: ALTQPASVSANPGETVKITCPGGGIYAGRYYGYGWFQQKSPGSAPVTVIYSNDKRPSDIPSRFSGSASGSTATLTITGVQADDEAVYFCGSHDSNVGVFGAGTTLTVL
notes: made in Sp2/0; also called ChDD2; chimeric DD2
Q: With B10 as the binder, how does the IC50 [9] read?
A: 2.4 µg/mL

Q: And the IC50 [10]?
A: 4 µg/mL
